From the supplement of paper PMC11811203

B1: THAP1; numbered along this chain (parent)
chain: MVQSCSAYGCKNRYDKDKPVSFHKFPLTRPSLCKEWEAAVRRKNFKPTKYSSICSEHFTPDCFKRECNNKLLKENAVPTIFLCTEPHDKKEDLLEPQEQLPPPPLPPPVSQVDAAIGLLMPPLQTPVNLSVFCDHNYTVEDTMHQRKRIHQLEQQVEKLRKKLKTAQQRCRRQERQLEKLKEVVHFQKEKDDVSERGYVILPNDYFEIVEVPA

Variants of: B1
Assay: THAP1 transcriptional activity (GFP+/GFP- enrichment relative to wild-type constructs) (ratio to WT); higher = more THAP1 activity (PSMB5 reporter activation)
Settings: with PSMB5 promoter-GFP reporter
Summary of the method: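 Activity values are replicate-mean bright/dim read fold changes divided by the mean of wild-type synonymous constructs. They come from a human THAP1 site-saturation library (residues 2–213, each changed to all 20 amino acids) delivered by lentivirus at MOI ~0.3, in duplicate, into THAP1-knockout HEK-293T cells with mClover3 at endogenous PSMB5. BFP+ cells were sorted into GFP-dim and GFP-bright bins after five days, and variants were counted by Illumina sequencing of genomic DNA amplicons.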

Variant	THAP1 transcriptional activity
MVQSCSAYGCKNRYDKDKPVSFHKFPLTRPSLCKEWEAAVRRKNFKPTKYSSICSEHFTPDCFKRECNNKLLKENAVPTIFLCTEPHDKKEDLLEPQEQLRPPPLPPPVSQVDAAIGLLMPPLQTPVNLSVFCDHNYTVEDTMHQRKRIHQLEQQVEKLRKKLKTAQQRCRRQERQLEKLKEVVHFQKEKDDVSERGYVILPNDYFEIVEVPA [P101R]	1.3
MVQSCSAYGCKNRYDKDKPVSFHKFPLTRPSLCKEWEAAVRRKNFKPTKYSSICSEHFTPDCFKRECNNKLLKENAVPTIFLCTEPHDKKEDLLEPQEQLVPPPLPPPVSQVDAAIGLLMPPLQTPVNLSVFCDHNYTVEDTMHQRKRIHQLEQQVEKLRKKLKTAQQRCRRQERQLEKLKEVVHFQKEKDDVSERGYVILPNDYFEIVEVPA [P101V]	0.772
MVQSCSAYGCKNRYDKDKPVSFHKFPLTRPSLCKEWEAAVRRKNFKPTKYSSICSEHFTPDCFKRECNNKLLKENAVPTIFLCTEPHDKKEDLLEPQEQLAPPPLPPPVSQVDAAIGLLMPPLQTPVNLSVFCDHNYTVEDTMHQRKRIHQLEQQVEKLRKKLKTAQQRCRRQERQLEKLKEVVHFQKEKDDVSERGYVILPNDYFEIVEVPA [P101A]	1.1
MVQSCSAYGCKNRYDKDKPVSFHKFPLTRPSLCKEWEAAVRRKNFKPTKYSSICSEHFTPDCFKRECNNKLLKENAVPTIFLCTEPHDKKEDLLEPQEQLIPPPLPPPVSQVDAAIGLLMPPLQTPVNLSVFCDHNYTVEDTMHQRKRIHQLEQQVEKLRKKLKTAQQRCRRQERQLEKLKEVVHFQKEKDDVSERGYVILPNDYFEIVEVPA [P101I]	1.27
MVQSCSAYGCKNRYDKDKPVSFHKFPLTRPSLCKEWEAAVRRKNFKPTKYSSICSEHFTPDCFKRECNNKLLKENAVPTIFLCTEPHDKKEDLLEPQEQLNPPPLPPPVSQVDAAIGLLMPPLQTPVNLSVFCDHNYTVEDTMHQRKRIHQLEQQVEKLRKKLKTAQQRCRRQERQLEKLKEVVHFQKEKDDVSERGYVILPNDYFEIVEVPA [P101N]	3.11
MVQSCSAYGCKNRYDKDKPVSFHKFPLTRPSLCKEWEAAVRRKNFKPTKYSSICSEHFTPDCFKRECNNKLLKENAVPTIFLCTEPHDKKEDLLEPQEQLCPPPLPPPVSQVDAAIGLLMPPLQTPVNLSVFCDHNYTVEDTMHQRKRIHQLEQQVEKLRKKLKTAQQRCRRQERQLEKLKEVVHFQKEKDDVSERGYVILPNDYFEIVEVPA [P101C]	0.582
MVQSCSAYGCKNRYDKDKPVSFHKFPLTRPSLCKEWEAAVRRKNFKPTKYSSICSEHFTPDCFKRECNNKLLKENAVPTIFLCTEPHDKKEDLLEPQEQLPAPPLPPPVSQVDAAIGLLMPPLQTPVNLSVFCDHNYTVEDTMHQRKRIHQLEQQVEKLRKKLKTAQQRCRRQERQLEKLKEVVHFQKEKDDVSERGYVILPNDYFEIVEVPA [P102A]	1.01
MVQSCSAYGCKNRYDKDKPVSFHKFPLTRPSLCKEWEAAVRRKNFKPTKYSSICSEHFTPDCFKRECNNKLLKENAVPTIFLCTEPHDKKEDLLEPQEQLPIPPLPPPVSQVDAAIGLLMPPLQTPVNLSVFCDHNYTVEDTMHQRKRIHQLEQQVEKLRKKLKTAQQRCRRQERQLEKLKEVVHFQKEKDDVSERGYVILPNDYFEIVEVPA [P102I]	1.31
MVQSCSAYGCKNRYDKDKPVSFHKFPLTRPSLCKEWEAAVRRKNFKPTKYSSICSEHFTPDCFKRECNNKLLKENAVPTIFLCTEPHDKKEDLLEPQEQLPDPPLPPPVSQVDAAIGLLMPPLQTPVNLSVFCDHNYTVEDTMHQRKRIHQLEQQVEKLRKKLKTAQQRCRRQERQLEKLKEVVHFQKEKDDVSERGYVILPNDYFEIVEVPA [P102D]	2
MVQSCSAYGCKNRYDKDKPVSFHKFPLTRPSLCKEWEAAVRRKNFKPTKYSSICSEHFTPDCFKRECNNKLLKENAVPTIFLCTEPHDKKEDLLEPQEQLPEPPLPPPVSQVDAAIGLLMPPLQTPVNLSVFCDHNYTVEDTMHQRKRIHQLEQQVEKLRKKLKTAQQRCRRQERQLEKLKEVVHFQKEKDDVSERGYVILPNDYFEIVEVPA [P102E]	1.85
MVQSCSAYGCKNRYDKDKPVSFHKFPLTRPSLCKEWEAAVRRKNFKPTKYSSICSEHFTPDCFKRECNNKLLKENAVPTIFLCTEPHDKKEDLLEPQEQLPCPPLPPPVSQVDAAIGLLMPPLQTPVNLSVFCDHNYTVEDTMHQRKRIHQLEQQVEKLRKKLKTAQQRCRRQERQLEKLKEVVHFQKEKDDVSERGYVILPNDYFEIVEVPA [P102C]	1.36
MVQSCSAYGCKNRYDKDKPVSFHKFPLTRPSLCKEWEAAVRRKNFKPTKYSSICSEHFTPDCFKRECNNKLLKENAVPTIFLCTEPHDKKEDLLEPQEQLPHPPLPPPVSQVDAAIGLLMPPLQTPVNLSVFCDHNYTVEDTMHQRKRIHQLEQQVEKLRKKLKTAQQRCRRQERQLEKLKEVVHFQKEKDDVSERGYVILPNDYFEIVEVPA [P102H]	1.04
MVQSCSAYGCKNRYDKDKPVSFHKFPLTRPSLCKEWEAAVRRKNFKPTKYSSICSEHFTPDCFKRECNNKLLKENAVPTIFLCTEPHDKKEDLLEPQEQLPFPPLPPPVSQVDAAIGLLMPPLQTPVNLSVFCDHNYTVEDTMHQRKRIHQLEQQVEKLRKKLKTAQQRCRRQERQLEKLKEVVHFQKEKDDVSERGYVILPNDYFEIVEVPA [P102F]	0.858
MVQSCSAYGCKNRYDKDKPVSFHKFPLTRPSLCKEWEAAVRRKNFKPTKYSSICSEHFTPDCFKRECNNKLLKENAVPTIFLCTEPHDKKEDLLEPQEQLPGPPLPPPVSQVDAAIGLLMPPLQTPVNLSVFCDHNYTVEDTMHQRKRIHQLEQQVEKLRKKLKTAQQRCRRQERQLEKLKEVVHFQKEKDDVSERGYVILPNDYFEIVEVPA [P102G]	2.33
